Data on 4 molecules can be found in paper PMC5376091.

The assay deals with wild type (WT) Aβ40 peptide (human).

Consider Aβ40 A2V variant, full-length (peptide), for which the ThT fibrillization of 25 μM WT Aβ40 co-incubated with full-length A2V (WT to A2V 1 to 1 and 1 to 2): shortening of the lag time was 6 h; the ThT signal at the final plateau of 25 μM WT Aβ40 mixed with two fold full-length A2V, against WT alone was determined as 40%.

Consider Aβ40 A2T variant, full-length (peptide), for which the ThT fibrillization of 25 μM WT Aβ40 co-incubated with full-length A2T (WT to A2T 1 to 1 and 1 to 2): extension of the lag phase is 8 h.

For A2V NTF(1–10) (peptide), the ThT fibrillization of 25 μM WT Aβ40 co-incubated with A2V NTF(1–10) (1 to 1 and 1 to 6): shortening of the lag phase was 8 h; the ThT signal of the end-point product of 25 μM WT Aβ40 with A2V NTF(1–10) (1 fold and 6 fold), against WT only is 22%.

B1: A2T NTF(1–10) (peptide)
chain: DTEFRHDSYG
As to B1, the ThT fibrillization of 25 μM WT Aβ40 co-incubated with A2T NTF(1–10) (1 to 1 and 1 to 6): decrease of the ThT plateau was found to be 20%.
